Results: patent US20030180895A1

Legend:
Assay in all cases: cell-based or functional assay
[1] = molecular target: Bacillus subtilis xylanase A mutant D11S (Bacillus subtilis) (UniProt P18429)
[2] = molecular target: Bacillus subtilis xylanase A mutant D11F/G34D (Bacillus subtilis) (UniProt P18429)
[3] = molecular target: Bacillus subtilis xylanase A mutant S31Y (Bacillus subtilis) (UniProt P18429)
[4] = molecular target: Bacillus subtilis xylanase A mutant D119K (Bacillus subtilis) (UniProt P18429)
[5] = molecular target: Bacillus subtilis xylanase A mutant N17D (Bacillus subtilis) (UniProt P18429)
[6] = molecular target: Bacillus subtilis xylanase A mutant G120Y (Bacillus subtilis) (UniProt P18429)
[7] = molecular target: Bacillus subtilis xylanase A mutant G120F (Bacillus subtilis) (UniProt P18429)
[8] = molecular target: Bacillus subtilis xylanase A mutant T123Y (Bacillus subtilis) (UniProt P18429)
[9] = molecular target: Bacillus subtilis xylanase A mutant N114K (Bacillus subtilis) (UniProt P18429)
[10] = molecular target: Bacillus subtilis xylanase A mutant Y113D (Bacillus subtilis) (UniProt P18429)
[11] = molecular target: Bacillus subtilis xylanase A mutant Q175E (Bacillus subtilis) (UniProt P18429)
[12] = molecular target: Bacillus subtilis xylanase A mutant N114A (Bacillus subtilis) (UniProt P18429)
[13] = molecular target: Bacillus subtilis xylanase A mutant N32K (Bacillus subtilis) (UniProt P18429)
[14] = molecular target: Bacillus subtilis xylanase A mutant D121F (Bacillus subtilis) (UniProt P18429)
[15] = molecular target: Bacillus subtilis xylanase A mutant S31D (Bacillus subtilis) (UniProt P18429)
[16] = molecular target: Bacillus subtilis xylanase A mutant R122F (Bacillus subtilis) (UniProt P18429)
[17] = molecular target: Bacillus subtilis xylanase A mutant G34F (Bacillus subtilis) (UniProt P18429)
[18] = molecular target: Bacillus subtilis xylanase A mutant T124Y (Bacillus subtilis) (UniProt P18429)
[19] = molecular target: Bacillus subtilis xylanase A mutant G34D (Bacillus subtilis) (UniProt P18429)
[20] = molecular target: Thermomyces lanuginosus wildtype xylanase A (Thermomyces lanuginosus) (UniProt O43097)
[21] = molecular target: Bacillus subtilis xylanase A mutant N17Y (Bacillus subtilis) (UniProt P18429)
[22] = molecular target: Bacillus subtilis wild type xylanase A (Bacillus subtilis) (UniProt P18429)
[23] = molecular target: Bacillus subtilis xylanase A mutant T124D (Bacillus subtilis) (UniProt P18429)
[24] = molecular target: Bacillus subtilis xylanase A mutant T124K (Bacillus subtilis) (UniProt P18429)
[25] = molecular target: Bacillus subtilis xylanase A mutant R122D (Bacillus subtilis) (UniProt P18429)
[26] = molecular target: Bacillus subtilis xylanase A mutant D11K (Bacillus subtilis) (UniProt P18429)
[27] = molecular target: Bacillus subtilis xylanase A mutant I15K (Bacillus subtilis) (UniProt P18429)

UniProt O43097, sequence (O43097 32-225 limits assumed): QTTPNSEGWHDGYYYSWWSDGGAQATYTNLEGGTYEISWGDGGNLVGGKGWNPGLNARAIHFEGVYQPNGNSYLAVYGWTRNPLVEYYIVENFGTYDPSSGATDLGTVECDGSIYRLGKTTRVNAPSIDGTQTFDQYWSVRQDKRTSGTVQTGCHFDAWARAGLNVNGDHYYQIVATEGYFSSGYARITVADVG

- Relative inhibition, % at 1, 26 XIU/ml [1]: 98%
- Relative inhibition, % at 3, 15 XIU/ml [1]: 81%
- Relative inhibition, % at 6, 3 XIU/ml [1]: 60%
- Relative inhibition, % at 12, 6 XIU/ml [1]: 38%
- Relative inhibition, % at 1, 26 XIU/ml [2]: 104%
- Relative inhibition, % at 3, 15 XIU/ml [2]: 106%
- Relative inhibition, % at 6, 3 XIU/ml [2]: 103%
- Relative inhibition, % at 12, 6 XIU/ml [2]: 104%
- Relative inhibition, % at 1, 26 XIU/ml [3]: 83%
- Relative inhibition, % at 3, 15 XIU/ml [3]: 50%
- Relative inhibition, % at 6, 3 XIU/ml [3]: 27%
- Relative inhibition, % at 12, 6 XIU/ml [3]: 22%
- Relative inhibition, % at 1, 26 XIU/ml [4]: 94%
- Relative inhibition, % at 3, 15 XIU/ml [4]: 67%
- Relative inhibition, % at 6, 3 XIU/ml [4]: 40%
- Relative inhibition, % at 12, 6 XIU/ml [4]: 26%
- Relative inhibition, % at 1, 26 XIU/ml [5]: 90%
- Relative inhibition, % at 3, 15 XIU/ml [5]: 81%
- Relative inhibition, % at 6, 3 XIU/ml [5]: 50%
- Relative inhibition, % at 12, 6 XIU/ml [5]: 22%
- Relative inhibition, % at 1, 26 XIU/ml [6]: 81%
- Relative inhibition, % at 3, 15 XIU/ml [6]: 40%
- Relative inhibition, % at 6, 3 XIU/ml [6]: 18%
- Relative inhibition, % at 12, 6 XIU/ml [6]: 16%
- Relative inhibition, % at 1, 26 XIU/ml [7]: 71%
- Relative inhibition, % at 3, 15 XIU/ml [7]: 35%
- Relative inhibition, % at 6, 3 XIU/ml [7]: 18%
- Relative inhibition, % at 12, 6 XIU/ml [7]: 15%
- Relative inhibition, % at 1, 26 XIU/ml [8]: 80%
- Relative inhibition, % at 3, 15 XIU/ml [8]: 47%
- Relative inhibition, % at 6, 3 XIU/ml [8]: 28%
- Relative inhibition, % at 12, 6 XIU/ml [8]: 27%
- Relative inhibition, % at 1, 26 XIU/ml [9]: 87%
- Relative inhibition, % at 3, 15 XIU/ml [9]: 56%
- Relative inhibition, % at 6, 3 XIU/ml [9]: 33%
- Relative inhibition, % at 12, 6 XIU/ml [9]: 24%
- Relative inhibition, % at 1, 26 XIU/ml [10]: 96%
- Relative inhibition, % at 3, 15 XIU/ml [10]: 81%
- Relative inhibition, % at 6, 3 XIU/ml [10]: 63%
- Relative inhibition, % at 12, 6 XIU/ml [10]: 45%
- Relative inhibition, % at 1, 26 XIU/ml [11]: 87%
- Relative inhibition, % at 3, 15 XIU/ml [11]: 59%
- Relative inhibition, % at 6, 3 XIU/ml [11]: 40%
- Relative inhibition, % at 12, 6 XIU/ml [11]: 31%
- Relative inhibition, % at 1, 26 XIU/ml [12]: 80%
- Relative inhibition, % at 3, 15 XIU/ml [12]: 49%
- Relative inhibition, % at 6, 3 XIU/ml [12]: 28%
- Relative inhibition, % at 12, 6 XIU/ml [12]: 22%
- Relative inhibition, % at 1, 26 XIU/ml [13]: 82%
- Relative inhibition, % at 3, 15 XIU/ml [13]: 42%
- Relative inhibition, % at 6, 3 XIU/ml [13]: 19%
- Relative inhibition, % at 12, 6 XIU/ml [13]: 14%
- Relative inhibition, % at 1, 26 XIU/ml [14]: 101%
- Relative inhibition, % at 3, 15 XIU/ml [14]: 89%
- Relative inhibition, % at 6, 3 XIU/ml [14]: 72%
- Relative inhibition, % at 12, 6 XIU/ml [14]: 60%
- Relative inhibition, % at 1, 26 XIU/ml [15]: 79%
- Relative inhibition, % at 3, 15 XIU/ml [15]: 52%
- Relative inhibition, % at 6, 3 XIU/ml [15]: 30%
- Relative inhibition, % at 12, 6 XIU/ml [15]: 24%
- Relative inhibition, % at 1, 26 XIU/ml [16]: 93%
- Relative inhibition, % at 3, 15 XIU/ml [16]: 74%
- Relative inhibition, % at 6, 3 XIU/ml [16]: 58%
- Relative inhibition, % at 12, 6 XIU/ml [16]: 58%
- Relative inhibition, % at 1, 26 XIU/ml [17]: 76%
- Relative inhibition, % at 3, 15 XIU/ml [17]: 53%
- Relative inhibition, % at 6, 3 XIU/ml [17]: 34%
- Relative inhibition, % at 12, 6 XIU/ml [17]: 29%
- Relative inhibition, % at 1, 26 XIU/ml [18]: 101%
- Relative inhibition, % at 3, 15 XIU/ml [18]: 76%
- Relative inhibition, % at 6, 3 XIU/ml [18]: 49%
- Relative inhibition, % at 12, 6 XIU/ml [18]: 33%
- Relative inhibition, % at 1, 26 XIU/ml [19]: 94%
- Relative inhibition, % at 3, 15 XIU/ml [19]: 83%
- Relative inhibition, % at 6, 3 XIU/ml [19]: 70%
- Relative inhibition, % at 12, 6 XIU/ml [19]: 53%
- Relative inhibition, % at 1, 26 XIU/ml [20]: 45%
- Relative inhibition, % at 3, 15 XIU/ml [20]: 24%
- Relative inhibition, % at 6, 3 XIU/ml [20]: 17%
- Relative inhibition, % at 12, 6 XIU/ml [20]: 14%
- Relative inhibition, % at 1, 26 XIU/ml [21]: 79%
- Relative inhibition, % at 3, 15 XIU/ml [21]: 42%
- Relative inhibition, % at 6, 3 XIU/ml [21]: 23%
- Relative inhibition, % at 12, 6 XIU/ml [21]: 19%
- Relative inhibition, % at 1, 26 XIU/ml [22]: 77%
- Relative inhibition, % at 3, 15 XIU/ml [22]: 48%
- Relative inhibition, % at 6, 3 XIU/ml [22]: 29%
- Relative inhibition, % at 12, 6 XIU/ml [22]: 23%
- Relative inhibition, % at 1, 26 XIU/ml [23]: 87%
- Relative inhibition, % at 3, 15 XIU/ml [23]: 52%
- Relative inhibition, % at 6, 3 XIU/ml [23]: 32%
- Relative inhibition, % at 12, 6 XIU/ml [23]: 25%
- Relative inhibition, % at 1, 26 XIU/ml [24]: 110%
- Relative inhibition, % at 3, 15 XIU/ml [24]: 92%
- Relative inhibition, % at 6, 3 XIU/ml [24]: 73%
- Relative inhibition, % at 12, 6 XIU/ml [24]: 57%
- Relative inhibition, % at 1, 26 XIU/ml [25]: 85%
- Relative inhibition, % at 3, 15 XIU/ml [25]: 59%
- Relative inhibition, % at 6, 3 XIU/ml [25]: 41%
- Relative inhibition, % at 12, 6 XIU/ml [25]: 28%
- Relative inhibition, % at 1, 26 XIU/ml [26]: 109%
- Relative inhibition, % at 3, 15 XIU/ml [26]: 112%
- Relative inhibition, % at 6, 3 XIU/ml [26]: 113%
- Relative inhibition, % at 12, 6 XIU/ml [26]: 116%
- Relative inhibition, % at 1, 26 XIU/ml [27]: 84%
- Relative inhibition, % at 3, 15 XIU/ml [27]: 47%
- Relative inhibition, % at 6, 3 XIU/ml [27]: 28%
- Relative inhibition, % at 12, 6 XIU/ml [27]: 23%
Substance: wheat endogenous xylanase inhibitor
